These results are taken from publication PMC12796746, “Profiling the TRPV4 ankyrin repeat domain interactome and its disruption by neuromuscular disease-causing mutations” (The Journal of Biological Chemistry, 2025).

B1: 3-hydroxybutyrate dehydrogenase type 2 (natural protein, human, UniProt Q9BUT1 1-245, looked up)
chain: MGRLDGKVIILTAAAQGIGQAAALAFAREGAKVIATDINESKLQELEKYPGIQTRVLDVTKKKQIDQFANEVERLDVLFNVAGFVHHGTVLDCEEKDWDFSMNLNVRSMYLMIKAFLPKMLAQKSGNIINMSSVASSVKGVVNRCVYSTTKAAVIGLTKSVAADFIQQGIRCNCVCPGTVDTPSLQERIQARGNPEEARNDFLKRQKTGRFATAEEIAMLCVYLASDESAYVTGNPVIIDGGWSL
notes: human, spotted on the HuProt array; also called BDH2; source: bought: CDI Laboratories (HuProt v2.0 microarray)
B2: Protein FAM104B (natural protein, human, UniProt Q5XKR9 1-115, looked up)
chain: MGGCPVRKRRRNGSKEGNHHSTQPKRNKRNPIFQDSQDTEFSWSDNERSSSRINIPERASGPEGNLNQIVTEPDANFPQFLHEGLSKPVYVINWFMSFGPEIKLNTSQQGRNQAV
notes: human, spotted on the HuProt array; source: bought: CDI Laboratories (HuProt v2.0 microarray)
B3: Deoxycytidylate deaminase (natural protein, human, UniProt P32321 1-178, looked up)
chain: MSEVSCKKRDDYLEWPEYFMAVAFLSAQRSKDPNSQVGACIVNSENKIVGIGYNGMPNGCSDDVLPWRRTAENKLDTKYPYVCHAELNAIMNKNSTDVKGCSMYVALFPCNECAKLIIQAGIKEVIFMSDKYHDSDEATAARLLFNMAGVTFRKFIPKCSKIVIDFDSINSRPSQKLQ
notes: human, spotted on the HuProt array; also called DCTD; source: bought: CDI Laboratories (HuProt v2.0 microarray)
B4: Cysteine-rich DPF motif domain-containing protein 1 (natural protein, human, UniProt Q6NVV7 1-123, looked up)
chain: MASHVECRPLGVFECELCTLTAPYSYVGQKPPNTQSMVLLEESYVMKDPFTSDKDRFLVLGSCCSLCSRLVCVGPECSLFYSKRFCLPCVRENINAFPQEIRQDLEKRKAPSKRTPSQPGSRT
notes: human, spotted on the HuProt array; also called CDPF1; source: bought: CDI Laboratories (HuProt v2.0 microarray)
B5: Uncharacterized protein C6orf141 (natural protein, human, UniProt Q5SZD1 1-244, looked up)
chain: MNDPFARMETRGPQGAANPMDSSRSLGDLGPFPREVGRGAPLAPGARNPATAGASRSQGGGHEDRTADRALGPRAGEELDRESWVREKVLFLLHPERWLGTRGDPAREEVAGAEDLPHAGGEDHGEEPNYPSVFQRQKRISGRRVAPPRDAADPPKYVLVRVEDYQVTQEVLQTSWAKGRMTTRTEEHFVTALTFRSSREGQPGERWGPAESRALQARTGASRVHAAGRRVSPSPGTWLEEIKL
notes: as for B2
B6: Huntingtin-interacting protein K (natural protein, human, UniProt Q9NX55 1-121, looked up)
chain: MATEGDVELELETETSGPERPPEKPRKHDSGAADLERVTDYAEEKEIQSSNLETAMSVIGDRRSREQKAKQEREKELAKVTIKKEDLELIMTEMEISRAAAERSLREHMGNVVEALIALTN
notes: human, spotted on the HuProt array; also called HYPK; source: bought: CDI Laboratories (HuProt v2.0 microarray)
B7: 14-3-3 protein eta (natural protein, human, UniProt Q04917 1-246, looked up)
chain: MGDREQLLQRARLAEQAERYDDMASAMKAVTELNEPLSNEDRNLLSVAYKNVVGARRSSWRVISSIEQKTMADGNEKKLEKVKAYREKIEKELETVCNDVLSLLDKFLIKNCNDFQYESKVFYLKMKGDYYRYLAEVASGEKKNSVVEASEAAYKEAFEISKEQMQPTHPIRLGLALNFSVFYYEIQNAPEQACLLAKQAFDDAIAELDTLNEDSYKDSTLIMQLLRDNLTLWTSDQQDEEAGEGN
notes: human, spotted on the HuProt array; also called YWHAH; source: bought: CDI Laboratories (HuProt v2.0 microarray)
B8: Short coiled-coil protein (natural protein, human, UniProt Q9UIL1 1-159, looked up)
chain: MRRRVFSSQDWRASGWDGMGFFSRRTFCGRSGRSCRGQLVQVSRPEVSAGSLLLPAPQAEDHSSRILYPRPKSLLPKMMNADMDAVDAENQVELEEKTRLINQVLELQHTLEDLSARVDAVKEENLKLKSENQVLGQYIENLMSASSVFQTTDTKSKRK
notes: human, spotted on the HuProt array; also called SCOC; source: bought: CDI Laboratories (HuProt v2.0 microarray)
B9: Myosin light chain 1/3, skeletal muscle isoform (natural protein)
chain: not shown
notes: human, spotted on the HuProt array; also called MYL1; source: bought: CDI Laboratories (HuProt v2.0 microarray)
B10: Uncharacterized protein C4orf36 (natural protein, human, UniProt Q96KX1 1-117, looked up)
chain: MAYGVPRKNTVKTILRGSCYNVQEPWDIALLAKTWSTNLANIKLPFLEEISFGGSVQLTKCTTIKDGLLPSAESIKLEREYEVKRLCKLKCQENTSKEIQLLLRERPAGLRRPLPSK
notes: as for B2
B11: Ras-related protein Rab-7L1 (natural protein, human, UniProt O14966 1-203, looked up)
chain: MGSRDHLFKVLVVGDAAVGKTSLVQRYSQDSFSKHYKSTVGVDFALKVLQWSDYEIVRLQLWDIAGQERFTSMTRLYYRDASACVIMFDVTNATTFSNSQRWKQDLDSKLTLPNGEPVPCLLLANKCDLSPWAVSRDQIDRFSKENGFTGWTETSVKENKNINEAMRVLIEKMMRNSTEDIMSLSTQGDYINLQTKSSSWSCC
notes: human, spotted on the HuProt array; also called RAB29; source: bought: CDI Laboratories (HuProt v2.0 microarray)
B12: ADP-ribosylation factor-like protein 10 (natural protein, human, UniProt Q8N8L6 1-244, looked up)
chain: MAPRPLGPLVLALGGAAAVLGSVLFILWKTYFGRGRERRWDRGEAWWGAEAARLPEWDEWDPEDEEDEEPALEELEQREVLVLGLDGAGKSTFLRVLSGKPPLEGHIPTWGFNSVRLPTKDFEVDLLEIGGSQNLRFYWKEFVSEVDVLVFVVDSADRLRLPWARQELHKLLDKDPDLPVVVVANKQDLSEAMSMGELQRELGLQAIDNQREVFLLAASIAPAGPTFEEPGTVHIWKLLLELLS
notes: human, spotted on the HuProt array; also called ARL10; source: bought: CDI Laboratories (HuProt v2.0 microarray)
B13: Centrin-3 (natural protein, human, UniProt O15182 1-167, looked up)
chain: MSLALRSELVVDKTKRKKRRELSEEQKQEIKDAFELFDTDKDEAIDYHELKVAMRALGFDVKKADVLKILKDYDREATGKITFEDFNEVVTDWILERDPHEEILKAFKLFDDDDSGKISLRNLRRVARELGENMSDEELRAMIEEFDKDGDGEINQEEFIAIMTGDI
notes: human, spotted on the HuProt array; also called CETN3; source: bought: CDI Laboratories (HuProt v2.0 microarray)
B14: Protein N-terminal glutamine amidohydrolase (natural protein)
chain: not shown
notes: human, spotted on the HuProt array; also called WDYHV1; source: bought: CDI Laboratories (HuProt v2.0 microarray)
B15: Small proline-rich protein 2B (natural protein, human, UniProt P35325 1-72, looked up)
chain: MSYQQQQCKQPCQPPPVCPTPKCPEPCPPPKCPEPCPPPKCPQPCPPQQCQQKYPPVTPSPPCQPKYPPKSK
notes: human, spotted on the HuProt array; also called SPRR2B; source: bought: CDI Laboratories (HuProt v2.0 microarray)
B16: Polyadenylate-binding protein-interacting protein 2 (natural protein, human, UniProt Q9BPZ3 1-127, looked up)
chain: MKDPSRSSTSPSIINEDVIINGHSHEDDNPFAEYMWMENEEEFNRQIEEELWEEEFIERCFQEMLEEEEEHEWFIPARDLPQTMDQIQDQFNDLVISDGSSLEDLVVKSNLNPNAKEFVPGVKYGNI
notes: human, spotted on the HuProt array; also called PAIP2; source: bought: CDI Laboratories (HuProt v2.0 microarray)
B17: OTUB2 (on the HuProt array) (enzyme, human, UniProt Q96DC9 1-234, looked up)
chain: MSETSFNLISEKCDILSILRDHPENRIYRRKIEELSKRFTAIRKTKGDGNCFYRALGYSYLESLLGKSREIFKFKERVLQTPNDLLAAGFEEHKFRNFFNAFYSVVELVEKDGSVSSLLKVFNDQSASDHIVQFLRLLTSAFIRNRADFFRHFIDEEMDIKDFCTHEVEPMATECDHIQITALSQALSIALQVEYVDEMDTALNHHVFPEAATPSVYLLYKTSHYNILYAADKH
notes: deubiquitinase OTUB2, human, spotted on the HuProt array; source: bought: CDI Laboratories (HuProt v2.0 microarray)

The first assay deals with T1, TRPV4^WT-ARD (amino acids 149-397) (human, UniProt Q9HBA0 149-397).
T1 construct: TRPV4, human, ankyrin repeat domain, amino acids 149-397; source: E. coli BL21(DE3), purified; not shown: His6, C-terminal, kept; V5, C-terminal, kept
The assay can be described thus: peptide or protein array; HuProt Human Proteome Microarray v2.0, full-length human proteins spotted in duplicate; V5-tagged TRPV4 protein in solution at 1 μM, 1 h at 4 °C, 150 mM NaCl, 2.7 mM KCl, 25 mM Trizma base, 0.05% Tween-20, pH 7.4; detected with Alexa Fluor 647 anti-V5; hit: z-score >= 2 (N terminus: both of 2 slides; ARD constructs: at least 2 of 3 slides). To be noted: both partners purified.
On to B1, for which the binding result is on record as “binds”.

Take B2: the binding result is “binds”.

Regarding B3, the binding result is “binds”.

In the case of B4, the binding result is on record as “binds”.

In the case of B5, the binding result is listed as “binds”.

Turning to B6, the binding result is “binds”.

Turning to B7, the binding result is reported as “binds”.

As for B8, the binding result was “binds”.

With B9, the binding result is recorded as “binds”.

Turning to B10, the binding result is recorded as “binds”.

As to B11, the binding result is listed as “binds”.

For B12, the binding result is “binds”.

Take B13: the binding result is on record as “binds”.

Regarding B14, the binding result is “binds”.

In the case of B15, the binding result is listed as “binds”.

For the molecule B16, the binding result is recorded as “binds”.

For the next assay, the target named is T2, TRPV4^WT N-terminal domain (IDR and ARD, amino acids 1-397) (human, UniProt Q9HBA0 1-397).
T2 construct: TRPV4, human, N-terminal domain (IDR and ARD), amino acids 1-397; also called TRPV4^WT N terminus; full N terminus; source: E. coli BL21(DE3), purified; not shown: His6, C-terminal, kept; V5, C-terminal, kept
The assay is described as above. To be noted: both partners purified.
Take B17: the binding result is reported as “binds”.
